Measured values reported in US20140256786.
Where two headings read alike, the source gives them in different places.

Tests used:
[1] = test system: GST-dMiroΔTM fusion protein (amino acids 1-634 of the full-length dMiro protein, transmembrane domain deleted) [GST: P08515]
[2] = molecular target: GST-dMiroΔTM fusion protein (amino acids 1-634 of the full-length dMiro protein, transmembrane domain deleted) [GST: P08515]; remark: listed apart in the source

## mammalian PINK1 protein affinity purified from HEK293 cells by immunoprecipitation
[1]
  in vitro kinase assay: also failed to phosphorylate GST-dMiroΔTM in these assays

B1: 2xGST-dPINK1 fusion protein with GST fused at both the N- and C-terminus of dPINK1 (protein)
chain: KEDELEGVCWEIREAASRLQNAWNHDEISDTLDSKFTIDDLEIGPPIAKGCAAVVYAADFKKDVASDGASLHTDAQPQATPAFAPNSWSTHEMMSPLQNMSRFVHNFGGSVDNVFHYSQPSAASDFVGAQSREQDQRHHEQQQHQNQEQEQHQNQEPSSSAFNVTSPANSNINSSVDSYPLALKMMFNYDIQSNALSILRAMYKETVPARQRGMNEAADEWERLLQNQTVHLPRHPNIVCMFGFFCDEVRNFPDGHLLYPVAQPQRINPQGYGRNMSLYLLMKRYDHSLRGLLDSQDLSTRNRILLLAQMLEAVNHLSRHGVAHRDLKSDNVLIELQDDAAPVLVLSDFGCCLADKVHGLRLPYVSHDVDKGGNAALMAPEIFNTMPGPFAVLNYGKADLWACGALAYEIFGNRNPFYSSSGGMARERGEMTLSLRNSDYRQDQLPPMSDACPPLLQQLVYNILNPNPSKRVSPDIAANVVQLFLWAPSNWLKAGGMPNSPEILQWLLSLTTKIMCEGRPQMGAGLMPVASCGNRRAYVEYLLICSFLARARLRRIRGALNWIQNVVA
[2]
  in vitro kinase assay (P32 autoradiography): failed to show phosphorylation of GST-dMiroΔTM

B2: Drosophila PINK1 protein affinity purified from HEK293 cells by immunoprecipitation (protein)
chain: MSVRLLTVRLIKHGRYILRSYCKRDIHANILDQNQLKTRSKRGFPLPSTAANVLRTTPQQAAKSVVNVVPRTINSPSGSPFNGSGSSPTSSSGIFRVGQHARKLFIDNILSRVTTTYSEDLRQRATRKLFFGDSAPFFALIGVSLASGSGVLSKEDELEGVCWEIREAASRLQNAWNHDEISDTLDSKFTIDDLEIGPPIAKGCAAVVYAADFKKDVASDGASLHTDAQPQATPAFAPNSWSTHEMMSPLQNMSRFVHNFGGSVDNVFHYSQPSAASDFVGAQSREQDQRHHEQQQHQNQEQEQHQNQEPSSSAFNVTSPANSNINSSVDSYPLALKMMFNYDIQSNALSILRAMYKETVPARQRGMNEAADEWERLLQNQTVHLPRHPNIVCMFGFFCDEVRNFPDGHLLYPVAQPQRINPQGYGRNMSLYLLMKRYDHSLRGLLDSQDLSTRNRILLLAQMLEAVNHLSRHGVAHRDLKSDNVLIELQDDAAPVLVLSDFGCCLADKVHGLRLPYVSHDVDKGGNAALMAPEIFNTMPGPFAVLNYGKADLWACGALAYEIFGNRNPFYSSSGGMARERGEMTLSLRNSDYRQDQLPPMSDACPPLLQQLVYNILNPNPSKRVSPDIAANVVQLFLWAPSNWLKAGGMPNSPEILQWLLSLTTKIMCEGRPQMGAGLMPVASCGNRRAYVEYLLICSFLARARLRRIRGALNWIQNVVA
[2]
  in vitro kinase assay: also failed to phosphorylate GST-dMiroΔTM in these assays
